B1: Sir2-myc [Drosophila] / GST-Atg8a-WT [Drosophila] (parent complex)
chain 1: MMENYEEIRLGHIRSKDLGNQVPDTTQFYPPTKFDFGAEILASTSTEAEAEAEATATTTEPATSELAGKANGEIKTKTLAAREEQEIGANLEHKTKNPTKSMGEDEDDEEEEEEDDEEEEEDDEEGITGTSNEDEDSSSNCSSSVEPDWKLRWLQREFYTGRVPRQVIASIMPHFATGLAGDTDDSVLWDYLAHLLNEPKRRNKLASVNTFDDVISLVKKSQKIIVLTGAGVSVSCGIPDFRSTNGIYARLAHDFPDLPDPQAMFDINYFKRDPRPFYKFAREIYPGEFQPSPCHRFIKMLETKGKLLRNYTQNIDTLERVAGIQRVIECHGSFSTASCTKCRFKCNADALRADIFAQRIPVCPQCQPNKEQSVDASVAVTEEELRQLVENGIMKPDIVFFGEGLPDEYHTVMATDKDVCDLLIVIGSSLKVRPVAHIPSSIPATVPQILINREQLHHLKFDVELLGDSDVIINQICHRLSDNDDCWRQLCCDESVLTESKELMPPEHSNHHLHHHLLHHRHCSSESERQSQLDTDTQSIKSNSSADYILGSAGTCSDSGFESSTFSCGKRSTAAEAAAIERIKTDILVELNETTALSCDRLGLEGPQTTVESYRHLSIDSSKDSGIEQCDNEATPSYVRPSNLVQETKTVAPSLTPIPQQRGKRQTAAERLQPGTFYSHTNNYSYVFPGAQVFWDNDYSDDDDEEEERSHNRHSDLFGNVGHNYKDDDEDACDLNAVPLSPLLPPSLEAHIVTDIVNGSNEPLPNSSPGQKRTACIIEQQPTPAIETEIPPLKKRRPSEENKQQTQIERSEESPPPGQLAAV
chain 2: MKFQYKEEHAFEKRRAEGDKIRRKYPDRVPVIVEKAPKARIGDLDKKKYLVPSDLTVGQFYFLIRKRIHLRPEDALFFFVNNVIPPTSATMGSLYQEHHEEDYFLYIAYSDENVYGMAKIN

In the assay the parent is B1. Briefly: GST pull-down from larval lysate, anti-myc immunoblot, quantified; parent: 1; read off a plot. (In western blotting, separated proteins are transferred to a membrane and probed.)
In the case of chain 2 Y49A, the ratio to parent was around 0.21.

(Values after paper PMC7262597 (2020).)
